Data: patent publication US20200102387A1 (CELGENE, published 2020)

How the values were obtained:
[1] = target: T1, recombinant SIRPα protein (Novoprotein, catalog number C385) (human, UniProt P78324 31-370); test: SPR Biacore T200 competition in solution, SIRPα 20 nM, competitor immobilized CD47-ECD
T1 construct: also called human recombinant SIRPα protein; SIRPα antigen

[2] = target: T2, extracellular domain of SIRPα v1-DLN (e.g. SIRPα1) (human, UniProt P78324 31-373); test: SPR Biacore T200, antibody on Protein A chip, 1:1 Langmuir fit; comparative Biacore study of Table 30, a separate experiment from Table 15
T2 construct: also called hSIRPα - ECD (v1)

[3] = target: T3, cynomolgus SIRPα on cells (cynomolgus, UniProt P78324 31-373 (human entry)); test: flow cytometry, cyno SIRPα-CHO cells, anti-human IgG-AF647 detection
T3 construct: also called cyno SIRPα-CHO; Cyno SIRPα-CHO-K1; not shown: Transmembrane and cytoplasmic region of cynomolgus SIRPα
T3 chain: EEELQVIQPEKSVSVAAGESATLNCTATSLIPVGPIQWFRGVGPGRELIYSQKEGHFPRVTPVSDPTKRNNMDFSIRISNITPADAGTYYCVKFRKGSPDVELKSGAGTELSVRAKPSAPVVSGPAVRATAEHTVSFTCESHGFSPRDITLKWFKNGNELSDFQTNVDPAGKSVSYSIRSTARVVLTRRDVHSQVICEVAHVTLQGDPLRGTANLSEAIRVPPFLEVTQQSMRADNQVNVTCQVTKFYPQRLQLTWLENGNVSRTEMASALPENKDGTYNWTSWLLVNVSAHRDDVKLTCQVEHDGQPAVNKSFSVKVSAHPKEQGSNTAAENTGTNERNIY

human SIRPα on cells [4] = target: T4, human SIRPα on cells (human, UniProt P78324 31-504); test: cell-based or functional assay
human SIRPα on cells [5] = target: T4, human SIRPα on cells; test: flow cytometry, human SIRPα-CHO cells, anti-human IgG-AF647 detection
[6] = target: T5, rat SIRPα on CHO-K1 cells (rat, UniProt P97710 32-509); test: flow cytometry on Rat SIRPα-CHO-K1 cells
T5 construct: whole, on cells; also called rat SIRPα-CHO-K1
T5 sequence (looked up): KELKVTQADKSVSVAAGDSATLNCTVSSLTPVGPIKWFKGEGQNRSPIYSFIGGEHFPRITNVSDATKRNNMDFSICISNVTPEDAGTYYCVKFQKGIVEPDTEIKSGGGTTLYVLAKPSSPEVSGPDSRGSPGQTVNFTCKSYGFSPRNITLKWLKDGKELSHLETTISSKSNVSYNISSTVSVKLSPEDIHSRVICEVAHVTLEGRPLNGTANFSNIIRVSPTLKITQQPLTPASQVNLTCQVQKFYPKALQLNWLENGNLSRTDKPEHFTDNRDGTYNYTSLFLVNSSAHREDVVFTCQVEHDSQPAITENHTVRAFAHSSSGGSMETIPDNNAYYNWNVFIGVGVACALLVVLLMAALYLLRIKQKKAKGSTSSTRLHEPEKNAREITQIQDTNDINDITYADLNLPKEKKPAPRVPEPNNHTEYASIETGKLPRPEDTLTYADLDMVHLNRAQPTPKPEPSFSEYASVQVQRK

[7] = target: T6, SIRPγ extracellular domain (human, UniProt Q9P1W8 29-360); test: SPR Biacore T200, antibody captured on Protein A chip
T6 construct: also called hSIRPγ - ECD

[8] = target: T2, extracellular domain of SIRPα v1-DLN …; test: as above
[9] = target: T7, SIRPβ extracellular domain (human, UniProt O00241 30-371); test: as above
T7 construct: also called hSIRPβ - ECD
T7 chain: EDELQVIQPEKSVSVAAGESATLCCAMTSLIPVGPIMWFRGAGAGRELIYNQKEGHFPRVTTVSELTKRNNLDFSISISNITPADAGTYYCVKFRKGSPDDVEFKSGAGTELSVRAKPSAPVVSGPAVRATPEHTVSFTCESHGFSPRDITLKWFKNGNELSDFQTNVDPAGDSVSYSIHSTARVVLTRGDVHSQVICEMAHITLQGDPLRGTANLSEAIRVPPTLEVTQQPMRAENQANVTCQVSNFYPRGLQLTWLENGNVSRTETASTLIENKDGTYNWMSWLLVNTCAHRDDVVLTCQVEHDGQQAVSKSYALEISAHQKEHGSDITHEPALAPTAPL

[10] = target: T6, SIRPγ extracellular domain; test: SPR Biacore T200, antibody on Protein A chip, 1:1 Langmuir fit
[11] = target: T7, SIRPβ extracellular domain; test: as above

B1: SIRPAB-11-K322A (antibody, human IgG1, kappa)
light: DIQMTQSPSSVSASVGDRVTITCRASQGISSWLAWYQQKPGKAPKLLIYAASNLQSGVPSRFSGSGSGTDFTLTISSLQPEDFATYYCQQGASFPITFGGGTKVEIKRTVAAPSVFIFPPSDEQLKSGTASVVCLLNNFYPREAKVQWKVDNALQSGNSQESVTEQDSKDSTYSLSSTLTLSKADYEKHKVYACEVTHQGLSSPVTKSFNRGEC
heavy: not shown
notes: human IgG1 with K322A (EU numbering); also called SIRPAB-11-IgG1-K322A; SIRPAB-11-K322A-AlexaFluor647
IC50 [1]: 12.6 nM
Kd [2]: 0.0923 nM
EC50 [3]: 1.9 nM
EC50 of percent phagocytic macrophages; FaDu; donor 358; 0.2 nM cetuximab (human SIRPα on cells [4]): 0.075 nM
EC50 of percent phagocytic macrophages; FaDu; donor 358; 1 nM cetuximab (human SIRPα on cells [4]): 0.049 nM
EC50 of percent phagocytic macrophages; GP2d; donor 338; 0.2 nM cetuximab (human SIRPα on cells [4]): 0.657 nM
EC50 of percent phagocytic macrophages; GP2d; donor 338; 1 nM cetuximab (human SIRPα on cells [4]): 0.495 nM
EC50 of percent phagocytic macrophages; GP2d; donor 358; 0.2 nM cetuximab (human SIRPα on cells [4]): 16.2 nM
EC50 of percent phagocytic macrophages; GP2d; donor 358; 1 nM cetuximab (human SIRPα on cells [4]): 0.247 nM
EC50 of percent phagocytic macrophages; GP2d; mean; 0.2 nM cetuximab (human SIRPα on cells [4]): 8.43 nM
EC50 of percent phagocytic macrophages; GP2d; mean; 1 nM cetuximab (human SIRPα on cells [4]): 0.371 nM
EC50 of percent phagocytic macrophages; GP5d; donor 338; 0.2 nM cetuximab (human SIRPα on cells [4]): 0.543 nM
EC50 of percent phagocytic macrophages; GP5d; donor 338; 1 nM cetuximab (human SIRPα on cells [4]): 0.714 nM
EC50 of percent phagocytic macrophages; GP5d; donor 358; 0.2 nM cetuximab (human SIRPα on cells [4]): 0.886 nM
EC50 of percent phagocytic macrophages; GP5d; donor 358; 1 nM cetuximab (human SIRPα on cells [4]): 0.162 nM
EC50 of percent phagocytic macrophages; GP5d; mean; 0.2 nM cetuximab (human SIRPα on cells [4]): 0.715 nM
EC50 of percent phagocytic macrophages; GP5d; mean; 1 nM cetuximab (human SIRPα on cells [4]): 0.438 nM
EC50 of percent phagocytic macrophages; SW480; donor 338; 0.2 nM cetuximab (human SIRPα on cells [4]): 0.2 nM
EC50 of percent phagocytic macrophages; SW480; donor 338; 1 nM cetuximab (human SIRPα on cells [4]): 0.461 nM
EC50 of percent phagocytic macrophages; SW480; donor 358; 0.2 nM cetuximab (human SIRPα on cells [4]): 2.06 nM
EC50 of percent phagocytic macrophages; SW480; donor 358; 1 nM cetuximab (human SIRPα on cells [4]): 0.102 nM
EC50 of percent phagocytic macrophages; SW480; mean; 0.2 nM cetuximab (human SIRPα on cells [4]): 1.13 nM
EC50 of percent phagocytic macrophages; SW480; mean; 1 nM cetuximab (human SIRPα on cells [4]): 0.282 nM
EC50 (human SIRPα on cells [5]): 2.06 nM
binding result [6]: no binding (tested: 100 nM (Log nM 2))
Kd [7]: 0.0101 nM
koff [7]: 0.000188 s⁻¹
kon [7]: 1.71e+07 M⁻¹ s⁻¹
Kd [8]: 0.0152 nM
koff [8]: 0.000118 s⁻¹
kon [8]: 7.75e+06 M⁻¹ s⁻¹
Kd [9]: 12.1 nM
koff [9]: 0.000614 s⁻¹
kon [9]: 50600 M⁻¹ s⁻¹
Kd [10]: 0.0632 nM
Kd [11]: 0.38 nM
